One assay has as its target human CD28 (human, UniProt P10747 19-220). Briefly: flow cytometry, Jurkat cells (CD28). On the technique in general: A flow cytometer gives signals particle by particle.
For assay [1], the target named is T1, human CTLA-4 (human, UniProt P16410 36-223).
T1 construct: also called huCTLA4
The experiment in a line: flow cytometry, CHO cells stably expressing CTLA4.

The target of the next assay is T2, human CTLA4 on CHO cells (human, UniProt P16410 36-223).
T2 construct: whole, on cells; CHO cells stably expressing CTLA4; also called huCTLA4
Briefly: flow cytometry, CHO cells stably expressing CTLA4.

For assay [2], the target named is T3, CD28 on Jurkat/IL2 reporter cells (human, UniProt P10747 19-220).
T3 construct: whole, on cells; Endogenous CD28 of Jurkat cells; also called Jurkats (CD28)
The experiment in a line: flow cytometry, Jurkat cells (CD28).

The target of assay [3] is T4, human PD-L1 (full-length, expressed on CHO cells) (human, UniProt Q9NZQ7 19-290).
T4 construct: also called huPD-L1; CD274
The experiment in a line: flow cytometry, CHO cells expressing huPD-L1, PE anti-human Fc.

The target in assay [4] is T4, human PD-L1 (full-length, expressed on …). The experiment in a line: flow cytometry MFI at 33.3 nM relative to WT CD80 ECD-Fc (R&D), CHO/huPD-L1 cells.
Assay [5] shares this target. Briefly: flow cytometry, MFI on CHO/huPD-L1 cells over MFI on Jurkat (CD28) cells, 33.3 nM.
In assay [6] the target is T5, CD28 (endogenously expressed on Jurkat/IL2 reporter cells) (human, UniProt P10747 19-220).
T5 construct: Endogenous CD28 of Jurkat cells; also called human CD28
The experiment in a line: flow cytometry MFI at 33.3 nM relative to WT CD80 ECD-Fc (R&D), Jurkat cells.

Assay [7] has as its target T5, CD28 (endogenously expressed on …). Briefly: flow cytometry, Jurkat/IL2 reporter cells (endogenous CD28), PE anti-human Fc.
Assay [8] has as its target T6, human PD-L1 (human, UniProt Q9NZQ7 19-290).
T6 construct: also called huPD-L1; CD274
The experiment in a line: flow cytometry, CHO cells stably expressing PD-L1.

Assay [9] has as its target T7, human PD-L1 expressed on CHO cells (human, UniProt Q9NZQ7 19-290).
T7 construct: whole, on cells; Target on CHO cells stably expressing PD-L1; also called huPD-L1
The experiment in a line: flow cytometry, CHO cells stably expressing PD-L1, Fc fusion at 33.3 nM.

Assay [10] concerns the target T8, human PD-L1 (human, UniProt Q9NZQ7 19-290).
T8 construct: whole, on cells; CHO cells stably expressing huPD-L1; also called huPD-L1
Briefly: flow cytometry, CHO cells stably expressing huPD-L1, 33.3 nM Fc fusion, PE anti-human Fc.

Assay [11] concerns the target T9, human CTLA-4 (human, UniProt P16410 36-223).
T9 construct: whole, on cells; CHO cells stably expressing huCTLA4; also called huCTLA4
Briefly: flow cytometry, CHO cells stably expressing huCTLA-4, 33.3 nM Fc fusion, PE anti-human Fc.

Assay [12] deals with T10, human CTLA4 (full-length, expressed on CHO cells) (human, UniProt P16410 36-223).
T10 construct: also called huCTLA4
The experiment in a line: flow cytometry, CHO cells expressing huCTLA4, PE anti-human Fc.

T4 sequence (Q9NZQ7 19-290): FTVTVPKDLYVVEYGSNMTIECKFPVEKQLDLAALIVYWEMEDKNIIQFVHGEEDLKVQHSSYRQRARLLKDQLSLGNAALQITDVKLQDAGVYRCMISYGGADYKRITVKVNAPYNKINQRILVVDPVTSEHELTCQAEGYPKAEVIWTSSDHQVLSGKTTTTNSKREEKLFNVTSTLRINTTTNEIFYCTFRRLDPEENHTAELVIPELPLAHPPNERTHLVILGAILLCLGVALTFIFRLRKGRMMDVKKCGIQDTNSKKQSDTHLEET
T7 sequence (Q9NZQ7 19-290): as above
T2 sequence (P16410 36-223): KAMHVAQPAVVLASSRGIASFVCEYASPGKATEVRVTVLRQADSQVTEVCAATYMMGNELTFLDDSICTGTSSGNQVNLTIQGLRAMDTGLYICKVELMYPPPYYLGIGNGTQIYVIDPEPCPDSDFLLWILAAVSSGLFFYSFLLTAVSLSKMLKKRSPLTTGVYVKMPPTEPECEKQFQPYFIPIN
T10 sequence (P16410 36-223): as above

B1: CD80 IgV-Fc S21P/E35D/K37E/D46E/M47I/V68M (Fc fusion, not shown: a dimerising Fc or GST)
chain: VIHVTKEVKEVATLSCGHNVPVEELAQTRIYWQKDKEMVLTMMSGEINIWPEYKNRTIFDITNNLSIMILALRPSDEGTYECVVLKYEKDAFKREHLAEVTLSVKAD
On to B1, for which the “MFI at 33.3 nM” value in the assay with human CD28 was determined as 540 MFI; in the assay with human CTLA-4 [1], 20600 MFI.

B2: variant CD80 IgV-Fc E35D/M47V/L85M/R94Q (Fc fusion, not shown: a dimerising Fc or GST)
chain: VIHVTKEVKEVATLSCGHNVSVEELAQTRIYWQKDKKMVLTMMSGDVNIWPEYKNRTIFDITNNLSIVILALRPSDEGTYECVVMKYEKDAFKQEHLAEVTLSVKAD
Take B2: the “MFI at 33.3 nM” value with human CTLA4 on CHO cells was determined as 23300 MFI; in [2], 23.7 MFI.

B3: variant CD80 IgV-Fc Q33L/E35D/T41S/M47V (Fc fusion, not shown: a dimerising Fc or GST)
chain: VIHVTKEVKEVATLSCGHNVSVEELAQTRIYWLKDKKMVLSMMSGDVNIWPEYKNRTIFDITNNLSIVILALRPSDEGTYECVVLKYEKDAFKREHLAEVTLSVKAD
Turning to B3, the “MFI at 33.3 nM” value came out at 43800 MFI in assay [3] and 287 MFI in assay [7]. Further, the “Fold change to WT” value in [4] came out at 5.52 fold; in assay [6] it was 0.04 fold. For the same molecule, the “Ratio of PDL1:CD28” value in assay [5] is 153 ratio.

B4: CD80 IgV-Fc V22D/E24D/E35D/M47L/V68M/L85M/D90G (Fc fusion, not shown: a dimerising Fc or GST)
chain: VIHVTKEVKEVATLSCGHNVSDEDLAQTRIYWQKDKKMVLTMMSGDLNIWPEYKNRTIFDITNNLSIMILALRPSDEGTYECVVMKYEKGAFKREHLAEVTLSVKAD
In the case of B4, the “MFI at 33.3 nM” value with human PD-L1 [8] amounted to 19000 MFI.

B5: variant CD80 IgV-Fc Q33L/E35D/M47I (Fc fusion, not shown: a dimerising Fc or GST)
chain: VIHVTKEVKEVATLSCGHNVSVEELAQTRIYWLKDKKMVLTMMSGDINIWPEYKNRTIFDITNNLSIVILALRPSDEGTYECVVLKYEKDAFKREHLAEVTLSVKAD
Regarding B5, the “MFI at 33.3 nM” value came out at 37400 MFI in assay [3] and 282 MFI in [7]. For the same molecule, the “Fold change to WT” value in [4] worked out at 4.7 fold; in [6] it was 0.04 fold. In addition, the “Ratio of PDL1:CD28” value in [5] turned out to be 132 ratio.

B6: CD80 IgV-Fc T13R/Q33R/E35D/M38I/M47L/V68M/L85M/R94Q (Fc fusion, not shown: a dimerising Fc or GST)
chain: VIHVTKEVKEVARLSCGHNVSVEELAQTRIYWRKDKKIVLTMMSGDLNIWPEYKNRTIFDITNNLSIMILALRPSDEGTYECVVMKYEKDAFKQEHLAEVTLSVKAD
Turning to B6, the “MFI at 33.3 nM” value in the assay with human PD-L1 [8] is 20400 MFI; with human CD28, 15.2 MFI; with human CTLA-4 [1], 19100 MFI.

B7: CD80 M47V/N48K/V68M/K89N IgV-Fc (Fc fusion, not shown: small tags and cut ends; a dimerising Fc or GST)
chain: VIHVTKEVKEVATLSCGHNVSVEELAQTRIYWQKEKKMVLTMMSGDVKIWPEYKNRTIFDITNNLSIMILALRPSDEGTYECVVLKYENDAFKREHLAEVTLSVKAD
For the molecule B7, in assay [9], the “MFI at 33.3 nM” value is 23700 MFI.

B8: variant CD80 IgV-Fc (inert) H18R/A26P/E35D/D46N/M47V/V68M/A71G/D90P (Fc fusion)
chain: VIHVTKEVKEVATLSCGRNVSVEELPQTRIYWQKDKKMVLTMMSGNVNIWPEYKNRTIFDITNNLSIMILGLRPSDEGTYECVVLKYEKPAFKREHLAEVTLSVKAD
notes: not shown: inert human IgG1 Fc
With B8, the entries for the “MFI at 33.3 nM” value in the assay with human PD-L1 [10] and in the assay with human CTLA-4 [11] were 29300 MFI and 17300 MFI, respectively.

B9: CD80 IgV-Fc T13R/E35D/M47L/V68M (Fc fusion, not shown: a dimerising Fc or GST)
chain: VIHVTKEVKEVARLSCGHNVSVEELAQTRIYWQKDKKMVLTMMSGDLNIWPEYKNRTIFDITNNLSIMILALRPSDEGTYECVVLKYEKDAFKREHLAEVTLSVKAD
B9: the entries for the “MFI at 33.3 nM” value with human PD-L1 [8] and with human CD28 were 20000 MFI and 15.6 MFI, respectively.

B10: variant CD80 IgV-Fc Q33R/E35D/D46E/M47I (Fc fusion, not shown: a dimerising Fc or GST)
chain: VIHVTKEVKEVATLSCGHNVSVEELAQTRIYWRKDKKMVLTMMSGEINIWPEYKNRTIFDITNNLSIVILALRPSDEGTYECVVLKYEKDAFKREHLAEVTLSVKAD
Turning to B10, the “MFI at 33.3 nM” value in [12] is 3560 MFI; in assay [7], 303 MFI.

B11: CD80 E35D/M47V/V68M IgV-Fc (Fc fusion, not shown: small tags and cut ends; a dimerising Fc or GST)
chain: VIHVTKEVKEVATLSCGHNVSVEELAQTRIYWQKDKKMVLTMMSGDVNIWPEYKNRTIFDITNNLSIMILALRPSDEGTYECVVLKYEKDAFKREHLAEVTLSVKAD
Regarding B11, the “MFI at 33.3 nM” value in assay [9] is 16600 MFI.

(Values after patent US20210130436A1 (published 2021).)
